Experimental data taken from patent US11275076B2, “Systems and methods for assessing blood platelet function” (Medtronic, Inc., priority 2016, dated 2022).

Test system: fresh whole blood
Assay: drop distance cycle tests (ferromagnetic washer) assessing clot retraction in blood samples
Type: cell-based
Details: FIG. 4; for clot retraction (object drop distance over time): compared with fresh whole blood without platelet inhibitor, tests began after assumed clot initiation
Text: Referring now to FIG. 3, a schematic drawing of a predicted trace 100 generated by successive drop distance test cycles of an object (e.g., the ferromagnetic object 32 described above) in blood over time that may be representative of data obtainable by an embodiment of a blood analysis system or apparatus of the present disclosure (e.g., the blood analysis system 20 of FIGS. 1 and 2). For example, and with additional reference to FIGS. 1 and 2, each test cycle includes the object 32 caused to move by the electromagnetic 34 toward the top of the chamber 30 and then allowed to drop; the drop distance of the object 32 is determined or sensed (e.g., an absolute drop distance is determined or sensed once the object 32 is at rest within the blood 40, or is determined or sensed at the end of a predetermined test cycle period). This so-determined drop distance serves as a single data point on the trace 100. The same drop distance test cycle is repeated for the same blood sample 40, at regular or irregular time intervals, over the course of an assessment time period with the result of each successive drop distance test cycle providing an additional data point from which the trace 100 is generated. (i.e., the determined “object drop distance” is plotted relative to the Y-axis at the corresponding point in time over the assessment time period along the X-axis).
As a point of reference, FIG. 4 presents the results of the drop distance cycle tests described above (using a ferromagnetic washer as the object) with three different blood samples. The first blood sample (“FWB”) consisted of fresh whole blood. The second blood sample (“FWB+5 ug/mL Reopro”) consisted of the fresh whole blood of the first sample and the platelet inhibitor Reopro at a concentration of 5 μg/mL. […] As explained in U.S. Pat. No. 8,921,115, clot strength can be another indicator of platelet function, and can be assessed (along with platelet retraction) with some systems and methods of the present disclosure. […]

B1: Reopro: the platelet inhibitor Reopro (antibody, chains of the INN, looked up, V domains shown)
VH: EVQLQQSGTVLARPGASVKMSCEASGYTFTNYWMHWVKQRPGQGLEWIGAIYPGNSDTSYIQKFKGKAKLTAVTSTTSVYMELSSLTNEDSAVYYCTLYDGYYVFAYWGQGTLVTVSA
VL: EIVLTQSPVTLSVTPGDSVSLSCRASRDISNNLHWFQQTSHESPRLLIKYASQSMSGIPSRFSGSGSGTDFTLSINSVETEDFGMYFCQQTNSWPYTFGGGTKLEIK
modifications: Fab
Comparison of 5 μg/mL and 10 μg/mL Reopro in fresh whole blood
  object movement profile, dependence on platelet inhibitor concentration: dose dependent
Fresh whole blood + 5 μg/mL Reopro
  clot retraction (object drop distance over time): first blood sample (with normal platelet function) showed greater clot retraction that the second and third blood samples
Fresh whole blood + 10 μg/mL Reopro
  clot retraction (object drop distance over time): first blood sample (with normal platelet function) showed greater clot retraction that the second and third blood samples
